Test system: IRE1α in MyD88 KO Flt3L-derived BMDCs
Test: IRE1α activation in MyD88 KO Flt3L-derived BMDCs (immunoblot)
Assay type: cell-based, mouse
Conditions: ovalbumin 500 μg/ml or LPS 10 μg/ml, 4 h
Procedure: Figure S1. Antigen pulsing of BMDCs activates IRE1α. (A) BMDCs were treated with MG132 (5 μM) or ovalbumin (500 μg/ml) for indicated time points and analyzed by IB. (B) BMDCs were pulsed with ovalbumin (500 μg/ml) and G9668 (3 μM) for indicated time periods and analyzed by IB. (C) Molecular structure, potency, and kinase selectivity of G9668. (D) Schematic representation of G9668 interaction with 220 kinases at 1 μM. Size and color of circles represent interaction strength. Analysis was conducted by KinomeScan. (E) BMDCs were pulsed for 4 h with APC-tagged ovalbumin or soluble CD4-Fc protein (500 μg/ml) with amiloride (10 μM); uptake of protein was assayed by flow cytometry (n = 3). (F) WT or MyD88 KO Flt3L-derived BMDCs were pulsed with ovalbumin (500 μg/ml) or soluble CD4-Fc protein (500 μg/ml), or treated with LPS (10 μg/ml) for 4 h and analyzed by IB. (G) MEFs and BMDCs were pulsed with ovalbumin or treated with Tg (100 nM) for 4 h and analyzed by IB. Images in A, B, F, and G represent at least two similar experiments, and molecular weights represent kD; E bar graphs represent mean ± SD from three independent biological repeats. Analysis for E was performed using unpaired, two-tailed t test; *, P ≤ 0.05; **, P ≤ 0.01. Source data are available for this figure: SourceData FS1. […]

B1: ovalbumin: classical protein antigen ovalbumin (Sigma-Aldrich) (protein)
chain: MGSIGAASMEFCFDVFKELKVHHANENIFYCPIAIMSALAMVYLGAKDSTRTQINKVVRFDKLPGFGDSIEAQCGTSVNVHSSLRDILNQITKPNDVYSFSLASRLYAEERYPILPEYLQCVKELYRGGLEPINFQTAADQARELINSWVESQTNGIIRNVLQPSSVDSQTAMVLVNAIVFKGLWEKAFKDEDTQAMPFRVTEQESKPVQMMYQIGLFRVASMASEKMKILELPFASGTMSMLVLLPDEVSGLEQLESIINFEKLTEWTSSNVMEERKIKVYLPRMKMEEKYNLTSVLMAMGITDVFSSSANLSGISSAESLKISQAVHAAHAEINEAGREVVGSAEAGVDAASVSEEFRADHPFLFCIKHIATNAVLFFGRCVSP
IRE1α activation, MyD88 KO BMDCs: unimpeded IRE1α stimulation

— publication PMC9036094, “Antigen-derived peptides engage the ER stress sensor IRE1α to curb dendritic cell cross-presentation” (The Journal of Cell Biology, 2022)
